Measured values taken from PMC5943514, “Substrate specificity of human MCPIP1 endoribonuclease” (Scientific Reports, 2018).
Positions count from the first letter of the chain named. Numbers in names are those of the source. Where “and” joins values, the source holds several entries; their conditions need not be identical. Equal entries are not always repeated.

Experiments:
PIN D141N [1] = biological target: T1, PIN D141N (Homo sapiens, UniProt Q5D1E8 134-297, D141N); assay: fluorescence intensity titration; 2.5 mM Mg2+; 25 mM Tris-HCl pH 7.9, 150 mM NaCl, 5% glycerol, 2.5 mM MgCl2, 1 mM DTT, 0.5 mM EDTA, 0.05 mM ZnCl2, 25 C; oligo 2 nM (full length) or 20 nM (PIN, PIN-ZF); conditions: protein: recombinant, tags: N-terminal His6, chain copies: 2
T1 sequence: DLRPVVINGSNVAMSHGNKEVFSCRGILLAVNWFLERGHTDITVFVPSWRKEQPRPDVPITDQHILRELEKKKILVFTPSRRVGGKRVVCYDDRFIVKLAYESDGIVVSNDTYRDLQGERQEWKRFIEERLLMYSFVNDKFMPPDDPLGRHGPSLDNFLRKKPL

[2] = biological target: T2, MCPIP1 D141N (Regnase-1), full length (Homo sapiens, UniProt Q5D1E8 1-599, D141N); assay: as above; conditions: protein: recombinant, tags: none stated (purified by ion exchange), chain copies: 2
T2 sequence: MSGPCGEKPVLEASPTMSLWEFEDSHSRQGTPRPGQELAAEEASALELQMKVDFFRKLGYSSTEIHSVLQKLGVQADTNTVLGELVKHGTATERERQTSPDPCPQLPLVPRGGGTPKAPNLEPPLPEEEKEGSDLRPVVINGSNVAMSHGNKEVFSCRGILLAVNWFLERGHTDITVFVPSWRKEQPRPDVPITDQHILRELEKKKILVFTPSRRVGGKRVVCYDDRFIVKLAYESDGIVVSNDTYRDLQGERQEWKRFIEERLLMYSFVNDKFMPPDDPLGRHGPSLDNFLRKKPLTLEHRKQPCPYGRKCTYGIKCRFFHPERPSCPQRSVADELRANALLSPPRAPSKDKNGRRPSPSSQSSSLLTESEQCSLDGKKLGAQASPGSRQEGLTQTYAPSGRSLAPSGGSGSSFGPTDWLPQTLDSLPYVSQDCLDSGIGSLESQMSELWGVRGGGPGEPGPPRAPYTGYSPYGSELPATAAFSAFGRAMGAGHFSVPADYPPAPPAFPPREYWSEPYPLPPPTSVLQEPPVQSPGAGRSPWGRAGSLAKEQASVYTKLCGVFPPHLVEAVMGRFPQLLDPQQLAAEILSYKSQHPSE

PIN-ZF D141N [3] = biological target: T3, PIN-ZF D141N (Homo sapiens, UniProt Q5D1E8 134-327, D141N); assay: as above; conditions: protein: recombinant, tags: N-terminal His6, chain copies: 2
T3 sequence: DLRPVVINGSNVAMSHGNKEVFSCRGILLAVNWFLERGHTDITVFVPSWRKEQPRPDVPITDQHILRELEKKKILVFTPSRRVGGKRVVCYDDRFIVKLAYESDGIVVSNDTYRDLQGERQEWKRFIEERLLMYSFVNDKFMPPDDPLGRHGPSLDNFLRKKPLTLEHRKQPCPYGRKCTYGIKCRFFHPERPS

PIN D141N [4] = biological target: T1, PIN D141N; assay: fluorescence intensity titration; 2.5 mM Mg2+; 20 nM oligo; sequential 2:1 model; 25 mM Tris-HCl pH 7.9, 150 mM NaCl, 5% glycerol, 2.5 mM MgCl2, 1 mM DTT, 0.5 mM EDTA, 0.05 mM ZnCl2, 25 C; oligo 2 nM (full length) or 20 nM (PIN, PIN-ZF); conditions: protein: recombinant; tags: N-terminal His6; chain copies: 2; label: 5' 6-FAM; hairpin
PIN-ZF D141N [5] = biological target: T3, PIN-ZF D141N; assay: as above; conditions: protein: recombinant; tags: N-terminal His6; chain copies: 2; label: 5' 6-FAM; hairpin
[6] = biological target: the molecule itself; assay: SEC; analytical Superdex 200 Increase 10/300 GL calibrated with protein standards; 25 mM Tris pH 7.9, 300 mM NaCl, 10% glycerol, 1 mM DTT, 0.5 mM EDTA, also with 1.6 M urea; apparent molecular weight from the calibration curve, multiple Gaussian peak fit
[7] = label: 5' 6-FAM on strand 1, blunt, strands mixed 1:1.2

## UGUUGUUCUCUA (ssRNA) [mIL-6 82-93 ssRNA]
PIN D141N [1]; label: 5' 6-FAM, unstructured
  Kd: 41 ± 12 nM
[2]; label: 5' 6-FAM, unstructured
  Kd: 19 ± 11 nM
PIN-ZF D141N [3]; label: 5' 6-FAM, unstructured
  Kd: 34 ± 18 nM

## UGUUGUACACUACGAUGUACUGACA (structured_RNA) [mIL-6 82-106 YR]
PIN D141N [1]; label: 5' 6-FAM, hairpin
  Kd: 25.1 ± 7 nM
[2]; label: 5' 6-FAM, hairpin
  Kd: 9.5 ± 5.2 nM
PIN-ZF D141N [3]; label: 5' 6-FAM, hairpin
  Kd: 14.4 ± 9.6 nM

## TGTTGTTCTCTA (ssDNA) [mIL-6 82-93 ssDNA]
PIN D141N [1]; label: 5' 6-FAM
  Kd: 21.7 ± 6.6 nM
[2]; label: 5' 6-FAM
  Kd: 18.3 ± 8.2 nM
PIN-ZF D141N [3]; label: 5' 6-FAM
  Kd: 36 ± 20 nM

## UGUUCUCUACGAAGAAC (structured_RNA) [mIL-6 85-101 short stem]
PIN D141N [1]; label: 5' 6-FAM, hairpin
  Kd: 20.7 ± 7.2 nM
[2]; label: 5' 6-FAM, hairpin
  Kd: 9.2 ± 4 nM
PIN-ZF D141N [3]; label: 5' 6-FAM, hairpin
  Kd: 20 ± 10 nM

B1: mIL-6 82-93 dsDNA (dsDNA)
DNA 1: TGTTGTTCTCTA
DNA 2: TAGAGAACAACA
PIN D141N [1]; [7]
  Kd: 56 ± 17 nM
[2]; [7]
  Kd: 118 ± 49 nM
PIN-ZF D141N [3]; [7]
  Kd: 80 ± 30 nM

## UGUUGUU (ssRNA) [mIL-6 82-88 ssRNA]
PIN D141N [1]; label: 5' 6-FAM, unstructured
  Kd: 40 ± 12 nM
[2]; label: 5' 6-FAM, unstructured
  Kd: 14.5 ± 8.1 nM
PIN-ZF D141N [3]; label: 5' 6-FAM, unstructured
  Kd: 32 ± 20 nM

## UUUUUUUUUUUU (ssRNA) [poly-U 12 nt]
PIN D141N [1]; label: 5' 6-FAM
  Kd: 39 ± 11 nM
[2]; label: 5' 6-FAM
  Kd: 14.8 ± 7.2 nM
PIN-ZF D141N [3]; label: 5' 6-FAM
  Kd: 43 ± 23 nM

## UGUUGUUCUCUACGAAGAACUGACA (structured_RNA) [mIL-6 82-106 5'FAM]
PIN D141N [4]
  Kd: 24.1 ± 7.3 nM
PIN-ZF D141N [5]
  Kd: 6.6 ± 3.1 nM

## UGUUCUCUAUGGAGAACU (structured_RNA) [hIL-6 82-99]
PIN D141N [1]; label: 5' 6-FAM, hairpin
  Kd: 15.1 ± 4.5 nM
[2]; label: 5' 6-FAM, hairpin
  Kd: 4.1 ± 3.6 nM
PIN-ZF D141N [3]; label: 5' 6-FAM, hairpin
  Kd: 13.2 ± 6.8 nM

## UGUUGUUCUCUACGAAGAACUGACA (structured_RNA) [mIL-6 82-106 3'FAM]
PIN D141N [1]; label: 3' 6-FAM, hairpin
  Kd: 21.8 ± 6.3 nM
[2]; label: 3' 6-FAM, hairpin
  Kd: 8.6 ± 2.6 nM
PIN-ZF D141N [3]; label: 3' 6-FAM, hairpin
  Kd: 4.8 ± 1.8 nM

## ACAGUCAAGACUACGAUCUUGUUGU (structured_RNA) [mIL-6 82-106 RS (reverse stem)]
PIN D141N [1]; label: 5' 6-FAM, hairpin
  Kd: 39.3 ± 8.6 nM
[2]; label: 5' 6-FAM, hairpin
  Kd: 9.8 ± 2.3 nM
PIN-ZF D141N [3]; label: 5' 6-FAM, hairpin
  Kd: 15.1 ± 7.3 nM

## UGGAAAGUAUCUUUCCU (structured_RNA) [consensus stem-loop]
PIN D141N [1]; label: 5' 6-FAM, hairpin
  Kd: 36 ± 17 nM
[2]; label: 5' 6-FAM, hairpin
  Kd: 3.8 ± 2.8 nM
PIN-ZF D141N [3]; label: 5' 6-FAM, hairpin
  Kd: 9.1 ± 3.2 nM

B2: MCPIP1WT (Monocyte Chemoattractant Protein-1-Induced Protein 1), full-length (enzyme, human, UniProt Q5D1E8 1-599, looked up)
chain: T2 sequence with N141D
notes: human MCPIP1 encoded by ZC3H12A (synthetic gene optimised for E. coli, GenScript), full length, 1-599 aa; printed molecular weight 65.7 kDa; no tag is stated for the full-length protein; In solution a mixture of tetramer, dimer and monomer; also called Regnase-1; Regnase1; source: E. coli BL21-CodonPlus-RIL, purified (TMAE ion exchange in denaturing conditions, dialysis, Superdex 200 gel …)
[6]
  stoichiometry N: 4 and 2

B3: MCPIP1_(D141N), full-length (enzyme, human, UniProt Q5D1E8 1-599, looked up)
chain: T2 sequence
notes: human MCPIP1 encoded by ZC3H12A, full length, 1-599 aa, catalytic site mutant D141N; no tag is stated for the full-length protein; also called MCPIP_(D141N); source: E. coli BL21-CodonPlus-RIL, purified (TMAE ion exchange in denaturing conditions, dialysis, Superdex 200 gel filtration)
[6]
  stoichiometry N: 2 and 4
